# Data published in the nanobody polyreactivity screen of Harvey et al. (2022).
# Assay: yeast display, Sf9 membrane polyspecificity reagent, FACS + sequencing; frameworks hold sequencing errors
# How it was run: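 Nanobodies from a synthetic yeast display library (Saccharomyces cerevisiae BJ5465), induced 36–48 hours with galactose, were stained 1 hour at 4 °C with 10% biotinylated, detergent-solubilized Sf9 membrane reagent, enriched on streptavidin microbeads, then FACS-sorted. Anti-HA (expression) and streptavidin (reagent binding) fluorescence set low and high (top ~1%) gates. Polyreactivity labels come from the gate of origin. Genes were colony-PCR amplified, MiSeq 2 × 250 sequenced and filtered by CDR length.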
row,Sequence,polyreactivity (PSR sort gate)
1,QVQLVESGGGFVQAGRSLRLSCAASGSTFYIYAMGWSRQAPGKEREMVADISRGDSTNYADSVKGRFTISRDNAKNPVYLQLNSLKPEDTAVYYCNAAFRGERDWFSGRRYKFDYWGQGTQVTVSS,low polyreactivity
2,QVQLVESGGGIVHAGGSLRLSCAASGSTIDVYDMGWYRQAPGKERELVAAITTSGGGTYYADSVKGRFTISRDNAKNTVYLQMNRLKPEDTAVYYCAADTWRDGDDYWGQGTQVTVSS,low polyreactivity
3,QVQLVESGGGIVQAGCSLRFSCAASGGTFGYYTLGWYRQAPGKERQLVAAISSGGGTDYADSVKGRFTISRDNAKNTVSLQMNSLKAEDTAVYYCNAQWLEWHYVFLPSYTMDYWGLGTQVTVSS,low polyreactivity
4,QVQLVESGGGIVQAGCSLRLSCAASGRIFGYYSMGWYRQAPGKDTELVAAISNGGSTHYADSVKGRFTISRDNAKNTVYLHMNSLKPEDSAVYYCAARWHYGYYAYYYWGQGTQVTVSS,high polyreactivity
5,QVQLVESGGGIVQAGGCLRLSFAASGFSFAKNAMGSYRQAPGKERELVAAIRSGGSTKYADSVNGRFTISRDNAKNTVYLQMNSLKPEDTAVYYCNARSTWSRTRPAYDYWGQGTQVTVSS,high polyreactivity
6,QVQLVESGGGIVQAGGRLRLSCAASGRIFDDNSMGWYRKAPGKETELVATISSSGVSTSYADSVKGRFTISRDNAKNTVYFQMNSLNPEYTAVYFCNAGYRLRYKFDYWGQGTQVTVAS,low polyreactivity
7,QVQLVESGGGIVQAGGSHRLICAASGFTYIRYAMGWYRQAPGKERELVASISNRGGRTYYADSVKGRFTNSRDNAKNTVYLQMNSLKPEDTAVYYCAAGYSYYSWGQGTQVTVSS,high polyreactivity
8,QVQLVESGGGIVQAGGSLPLICAASGFTFDWYALGWYRQAPGKERELVAAITTSGGTTYYADSVKGRFTMSRDNAKITVYLQMNSLKPEDTAVFYCAADADTDVFYILQEYDYWGQGTQVTVSS,low polyreactivity
9,QVQLVESGGGIVQAGGSLPLSCAASGIIFSVNAMGWYRQAPGKERELVAAITYSGGSTYYADSVKGRYTISRDNAKNTVYLQMNSLKPEVTAVYYCAAETYSSGEWYDYWGQGTQVTVSS,high polyreactivity
10,QVQLVESGGGIVQAGGSLRLICAASGFIFVTYAMGWYRQAPGKETELVAAITNSGGTTYYADSVKGRFTISRDNAKNTVYLQMNSLKPEDTAVYYCAADVWTPYLISLKSGYDYWGQGTQVTVSS,low polyreactivity
11,QVQLVESGGGIVQAGGSLRLICAASGFTFGYYTMGWYRQAPGKEREFVAAISGSGTNTYYADSVKGRFTISRDYAKNTVYLQMNSLKPEYTAVYYCNARWSLVSSGFDGGYWGQGSQVTVSS,high polyreactivity
12,QVQLVESGGGIVQAGGSLRLICAASGSNFNRYAMGWYRQAPGKERQLVARITNRSGNTYYADSVKGRFTISRDIAKNTVYLQMTSLKPEDTAVYYCAATKSLGRYIMEYWGLGTQVTVSS,low polyreactivity
13,QVQLVESGGGIVQAGGSLRLICDASGLIFTLYAMGWYRQAPGKETELVAAIDDGGRTYYADSVKGRFTISRDNAKNTVYLQMNSMIPEDTAVYYGAAVWLAVYSVWTDHHYDYWGQGTQVTVSS,low polyreactivity
14,QVQLVESGGGIVQAGGSLRLISAASGFIFAIYAMGWYRQAPGNERELVAGISSSGSTTRYADSVKVRFTISRDYAKYTVYLQLISLIPEDTAVYDCAADGYPGDDYWGQGTQVTVSS,high polyreactivity
15,QVQLVESGGGIVQAGGSLRLSCAASGFIFNTNAMGWYRQAPGKERELVAGISRSGVRTYYADSVKGRFTISRDNAKNTVYLQMNSLKPEDTAVYYCAATSLPRYYYWGQGTQVTVSS,low polyreactivity
16,QVQLVESGGGIVQAGGSLRLSCAASGFIFRYYVMGSYRQAPGKERELVASISRSGTSTYYADSVKGRFTISRDNAKNTVYLQMNSLKPEDTAVYYCAKGVGRGFGSATGYYWGQGTQVTVSS,high polyreactivity
17,QVQLVESGGGIVQAGGSLRLSCAASGFTFFIYTMGWYRQAPGKERELVAAIRSRTGSTYYADSVKGRITISRDNAKNTVYLQMNSLKPDDTAVYYCAATRVRSASYSIEYDYWGQGTQVTVSS,high polyreactivity
18,QVQLVESGGGIVQAGGSLRLSCAASGFTFPVYAMGWYRQAPGKEREFVAAITYIGGSTYADSVKGRFTISRDNAKNTVYLQMNSLKPEDTAVYYCAADIITEYWADYLGYLEYDYWGQGTQVTVSS,low polyreactivity
19,QVQLVESGGGIVQAGGSLRLSCAASGFTFWRYARGWYRQAPGKERELVAGISSGGSTNYADSVKGRFTISRDNAKNTVYLQMNSLKPEDTAVYYCAARGNYFYGIYGYWGQGTQVTVSS,low polyreactivity
20,QVQLVESGGGIVQAGGSLRLSCAASGFTFWYYAMGWYRQAPGKERELVAVINTSGGSTYADSVKGRFTISRDNAKNTVYLQMNSLKPEDTAVYYCNKDFIYGYDAASYRPEYDYWGQGTQVTVSS,low polyreactivity

row,Sequence,polyreactivity (PSR sort gate)
1,QVQLVESGGGIVQAGGSLRLSCAASGFTILRYVMGWYRQAPGKERELVAAISYSGGRTYYADSVKGRFTISRDNAKHTVYLHMNSLKPEDPAVYYCAAARPFGYPPVMKYDYWGQVTQVTVSS,high polyreactivity
2,QVQLVESGGGIVQAGGSLRLSCAASGFTLWLNAMGWYRQAPGKERELVAAITTSDDGTYYADSVKGRFTISRDNAKNTVYLQMNSLKPEDTAVYYCASDYYSVLYDYWGQGTQLTVSS,low polyreactivity
3,QVQLVESGGGIVQAGGSLRLSCAASGFTYARYAKGWYRQAPGKERELVAAITRRGGSTHYADSVKGRFTISRDNAKNTVYLQMTSLKPEDTAVDYCAAYSLHNYLSEYGDWGQGTQVTVSS,high polyreactivity
4,QVQLVESGGGIVQAGGSLRLSCAASGIIFSIYGMGWYRQAPGKERELVAAINSGSSTNYADSVKGRFTISRDNAKNTVYLQMNSLKREDTAVYYCNADYRYPQYYHRTWIRYDYWGQGTQVTVSS,high polyreactivity
5,QVQLVESGGGIVQAGGSLRLSCAASGLIFSRYTMGWYRQAPAKEMELVAAISGRGTSTYYAYSVKGRFTISRDNAKNTVYLLMNSLKPEDTAVYYCATSKSYSAFDYWGQGTQVTVSS,high polyreactivity
6,QVQLVESGGGIVQAGGSLRLSCAASGLIFYTYAMGWYRQAPGKEREIVAAISRRGGSTYYADSVKGRFTISRDNAKNTVYLQMNSLKPEDTAVYYCNARGGRYGTYSHYGYWGQGTQVTVSS,high polyreactivity
7,QVQLVESGGGIVQAGGSLRLSCAASGLTFGFNAKGWYTQAPGQERELVATIDLNGGSTTYADSVKGRFTLSRDNAKNTVYLQMNSLKPEDTAVYYCAAQTGFVSHFFSHYDYGGQGTQVTVSS,low polyreactivity
8,QVQLVESGGGIVQAGGSLRLSCAASGLTFVNYAMGSYRQAPGKERELVAAITVNGGRTYYADSVKGRFTISRDNAKNTVYLQMFSLKPEDTAVYFCAAVYYRHGYTYSSDYWGQGTQVTVSS,high polyreactivity
9,QVQLVESGGGIVQAGGSLRLSCAASGNIFPYYDMGWYRPAPGKERELVAAITSSASGTYYADSVKGRFTISRDNAKNTVYLQMNSLKPEDTAVYYCAAGVFFFTFDYWGQGTQVTVSS,low polyreactivity
10,QVQLVESGGGIVQAGGSLRLSCAASGNTFNFYAMGWYRQAPGKERELVASITSGGGTNYADSVKGRFTISRDNAKNTVYLQMNSLKPEDTAVYYCADQFYYHFRYHFDWGLGTQVTVSS,low polyreactivity
11,QVQLVESGGGIVQAGGSLRLSCAASGNTYRWYAMGWNIQAPGKEREFVADITVRGGSTYYADSVKGRFTISRDNAKNTVYLQMNSLKPEDTAVYYCAADYRYGGSRGYRYDYWGQGTQVTVSS,low polyreactivity
12,QVQLVESGGGIVQAGGSLRLSCAASGRIFGGNSMGWYRQAPGKERELVAAITTSGGSTYYADSVKGRFTISRDNAKNTVYLQMNSLKPEDTAVYSCAAGIGDSYWYRRYGYWGQGTQVTVSS,low polyreactivity
13,QVQLVESGGGIVQAGGSLRLSCAASGRIFGHYAMGWYRPAPGKERELVAAITKNGDSTYYADSVKGRFTISRDNAKNRVYLPMNSLKPEDTAVYYCNAVYDLVCGEGYDSWGQGTQVTVSS,low polyreactivity
14,QVQLVESGGGIVQAGGSLRLSCAASGRIFGWYAMGWYREAPGKERELVAAISSGGRTKYADSVKGRFTISRDNAKNTVYLQMNSLKAEDTAVYYCNARRSYLPYKFGYDYWGQGTQVTVSS,low polyreactivity
15,QVQLVESGGGIVQAGGSLRLSCAASGRIFKYNAMGWYRQAPGKERELVAAISWSDGSTYYADSVKGRFTISRDNAKNTVYLQMNSLKPEDTAVYYCAARGYGFPELDYWGQGTQVTVSS,high polyreactivity
16,QVQLVESGGGIVQAGGSLRLSCAASGRIFQFYAMGWYRQAPGKERELVAGITTSGGSTYYADSVKGRFTISRDNAKNTVYLQMNSLKPEDTAVYYCAASRHFARHRGYYFRYDYWGQGTQVTVSS,high polyreactivity
17,QVQLVESGGGIVQAGGSLRLSCAASGRIFQYYAMGWYRQAPGKERELVASISGRGGRTYYADSVKGRFTISRDNAKNTVYLQMNSLKPEDTAVYYCNAVFSTIRYIRSYNYWGQGTQVTVSS,high polyreactivity
18,QVQLVESGGGIVQAGGSLRLSCAASGRIIGYYAMGWYIQAPGKERELVARISSSGGSTYYADSVKGRFTISRDNAKNTVYLQMNSLKPEVTAVYYCNTASNRFPGWRAEFDYWGQGTQVTVSS,low polyreactivity
19,QVQLVESGGGIVQAGGSLRLSCAASGRTFAVYAMGWYRQAPGKERELVAAINSSGRTDYADSVKGRFTISRDNAKNTVYLQMNSLKPEDTAVYYCNADFYFRRYRYRYNYWGQGTQVTVSS,high polyreactivity
20,QVQLVESGGGIVQAGGSLRLSCAASGRTFRINGMGWYRQAPGKERELIAAISDGGSTNYADSVKGRFTISRDNAKNTVYLQMNSLKPEDTAVYYCAVDPYYFFYDEWLGDPNFDYWGQGTQVTVSS,low polyreactivity
